# Reference: the DeepSol protein solubility set
# Experiment: soluble on expression in E. coli; label from the status in PepcDB or PDB records
row,Sequence,soluble on expression in E. coli
1,MAPMFGVSFDFDPDFSLLSNKTHKSRNPKPPVKLLPYRHGSNTTSSDSDSYTSDLDLPTMRLHHQWLRSPSRSKMCCSTGSSSISQSIHRA,not soluble
2,MLDTLLINIGQLLTMDQEDGLLRREAMNTLPVIENGVVGIENGVITFVGTAEEAKGLQAKEVIDSGGKMVSPGLVDPHTHLVFGGSRENEIALKLQGVPYLEILEQGGGILSTVNATKQASKEELVQKAKFHLDRMLSFGVTTVEAKSGYGLDDETEWKQLEATAQLQKEHPIDLVSTFLGAHAVPKEYKGRSKEFLQWMLDLLPEMKEKQLVEFVDIFCETGVFSVEESKEFLLKAKELGFDVKIHADEIDPLGGAEAAAEIGAASADHLVGASDKGIEMLANSNTVATLLPGTTFYLNKESFARGRKMIDEGVAVALATDFNPGSCPTENIQLIMSIAMLKLKMTPEEVWNAVTVNSSYAINRGDVAGKIRVGRKADLVLWDAYNYAYVPYHYGVSHVNTVWKNGNIAYTRGEQSWSTATI,not soluble
3,MSAKDFLVELGTEELPPKALNSLGEAFLSGIEKGLKAAGLSYAAARFYAAPRRLAVLVEQLAVQQPDRTVNLDGPPLQAAFDASGNPTQAALGFAKKCGVDLQQIDKSGPKLRFIQTIAGQPAAGLLPGIVEASLNELPIPKRMRWAARREEFVRPTQWLVMLFGDDVVECEILAQKAGRESRGHRFHNPDNVRISSPAAYLEDLRGAHVLADFAERRELIAKRVAELAAEQQGSAIVPPSLLDEVTALVEWPVPLVCSFEERFLEVPQEALITTMQDNQKYFCLLDANGKLLPRFITVANVESKAPENIVSGNEKVVRPRLTDAEFFFKQDKKQPLESFNERLRNVVFQAQLGTVFEKAQRVSGLAAYIAERIGGNAQNASRAGILSKCDLATEMVGEFPEMQGIAGYYYATHGGEAEDVALALNEQYMPRGAGAELPSTLTGAAVAVADKLDTLVGIFGIGMLPTGSKDPYALRRAALGVLRILIEKQLDLDLVAAVNAAVEQYGDKVKAAGLAEQVLDFVFDRLRARYEDEGVDVAVYQSVRALKPSSPLDFDQRVQAVQAFRQLPEAEALAAANKRVSNILAKSEDEVPPNVDASLLVEAAEKALGSAVANAESEVAPLAAARDYRAALARLAALREPVDTFFADVMVNVDDAAVRANRYALLAKLRGSFLGVADIS,not soluble
4,MDTTPEPFTGKMGSYILIAPDGDAAMIDSGPKTSWERVREELQSMGVRLRYVILTHIHLDHASAAGSIVRSLDTVEAVYVHPRGARHMADPERLWQASKQFLGDYADFFGKPEPVPEGKIVVPEDGEVLELPGGVKLHVIYTPGHASHHMSFYLPQEGVMFTGDSAGVSLKDDDGTLVEFPTTPPPFKPVEYINSLDAMARFKPEKLAFAHYGMRSGGMEYLRWHREDILRWVREAVEYVSRGGGDAEELMRLLADKLENAGKAYRARNPIISEFMYRGTVLGLMDTAVRGEWKRLHL,soluble
5,MSNEHTRPPLPPFTRESAIEKVRLAEDGWNTREPEKIALAYTVDTQWRNRAEFANNREEARDFLTRKWKKELDYRLIKELWAFTDNRIAVRYAYEWHDDSGNWFRSYGNENWEFEADGLMHRRFACINDMPIKESERKFHWPLGRRPDDHPGLTELGLLEHHHHHH,not soluble
6,MASTIAFPAMVKELRLSKNLTMEQLAEEVGKTKSTISKWEKGTRSPKIYEIEEIAKFFGVEPKKMMFGDNPTPTAPQVELIPSTLQKINSTSSQLEHKRQLNVLDYAETQLEQQNTVEEPQATYYTYNYYDHAASAGTGQYLNDVQVETIELPVDYDADFVIPVYGDSMEPKYHSGDYVFVKLSVELTDGDIGVFEYYGDAYIKQLLINDKGAFLHSLNQCGDYPDIPIDRDSDFRIIGEVMGSYRER,not soluble
7,MDNSGKEAEAMALLAEAERKVKNSQSFFSGLFGGSSKIEEACEIYARAANMFKMAKNWSAAGNAFCQAAQLHLQLQSKHDAATCFVDAGNAFKKADPQEAINCLMRAIEIYTDMGRFTIAAKHHISIAEIYETELVDIEKAIAHYEQSADYYKGEESNSSANKCLLKVAGYAALLEQYQKAIDIYEQVGTNAMDSPLLKYSAKDYFFKAALCHFCIDMLNAKLAVQKYEELFPAFSDSRECKLMKKLLEAHEEQNVDSYTESVKEYDSISRLDQWLTTMLLRIKKTIQGDEEDLR,soluble
8,MVKSFLMLGQSNMAGRGFINEVPMIYNERIQMLRNGRWQMMTEPINYDRPVSGISLAGSFADAWSQKNQEDIIGLIPCAEGGSSIDEWALDGVLFRHALTEAKFAMESSELTGILWHQGESDSLNGNYKVYYKKLLLIIEALRKELNVPDIPIIIGGLGDFLGKERFGKGCTEYNFINKELQKFAFEQDNCYFVTASGLTCNPDGIHIDAISQRKFGLRYFEAFFNRKHVLEPLINENELLNLNYARTHTKAEKIYIKSMDFALGKISYDEFTSELMKINNDLEHHHHHH,soluble
9,SDRLIDKMAGEERQKIELWAQATKIVASDDEAVLAKDLVLQIIQSNNSIPVILCDPKDSIISYNNIDIPAGKPALPYLQKKLRYFKEGYPPIRIEIEARRPQFLYYSDSQTLRR,not soluble
10,EPQVRESLGRDVMVVVDLSGSMAEPDFTSRTGEKISRLDAAKEVLTEFVQSRKGDRLGLVLFGDAAFVQTPFTADQKVWLELLNQTDVAMAGQSTHLGDAIGLAIKVFEQSDKSRGALEQDQNREKVAIVLTDGNDTGSFVEPIDAAKVAKAKGVRVHVIAMGDPETIGETALDMDTIHRIAKESGGEAFEALNRDELSAAYDEIGKLEPQLYESTTYRPKQSLHH,not soluble
11,MDKHQQAIITVSAYITNDTGEVLLVKSYDRSDTWEMPGGQVEPGEPLDRAVHREVYEETGVDIRLIGVSGVYYNETKNIINIVFKATYVKGNVSPQPEEIQKAKFVLIDESNIDEYVTWPHLKSRVLDAMKRECSVPYETWVMNPSRLSARVGR,not soluble
12,MPGAMHDEPDHPELSITVPTLNEAEGLERFFAMLSAQQGVRFELVIADGGSTDGTPESARRLAAATPFAATVIETGRGRGRQMNAGAAAAAGDTLLFLHADCAFPDPLALRTALDAFTQTVAAGGSHRVAGHFRLRFERTDSAPSLPYYFYEWKARLHRPGCTHGDQGLLLGRRFFAEAGPFDESFPILEDVGLAERIAALGEWLLLPAEIVTSARRFEAEGLRERQTLNALLMNFAAMGWDPFLAELPRLYQSQDRAGRLLLGPVLRLIARLLRPLPRRERGRLWRETGRYVRANAWQIPFFLDVRRHFRQGTPVGEGETPRLDLHDRIFDRLTENGAGHRATALLVWIWFRLSLLREPLTPPAARNPEGNGSLEHHHHHH,soluble
13,MGSDKIHHHHHHMSKPTQYGIIGCGMMGQEHLRNIALLPDARVAAIFEPNALMQAEAAKFAPDAQFVDSVEALLAIAELDCIMIASPNFRHVEQLETLASQNPLPVLVEKPLFTTLDDLNRIEEFAAHYPAPVWVAMEYRYMPPITAFLNEADTATGGIKMLTVREHRFPFLSKVDDWNRFNAQSGGTFVEKCCHFFDLMRLALKSEPVRIMASGGQDVNHLDERYDGSVPDILDNGYVIVEFESGARAMLELCMFAEGSKYQEDVSAVGPNGKVEAFVPGPGRFWPSHLGDAPVPKLVLSPRNPKGPEERDIPVDPTILDAGDHNGSTFYQHQKFLELVRGERSTPEVSLNDGKMAVLMGLAAQMSIAENRTVEISELL,not soluble
14,MSANDFKPETWTSSANEALRVSIVGENAVQFSPLFTYPIYGDSEKIYGYKDLIIHLAFDSVTFKPYVNVKYSAKLGDDNIVDVEKKLLSFLPKDDVIVRDEAKWVDCFAEERKTHNLSDVFEKVSEYSLNGEEFVVYKSSLVDDFARRMHRRVQIFSLLFIEAANYIDETDPSWQIYWLLNKKTKELIGFVTTYKYWHYLGAKSFDEDIDKKFRAKISQFLIFPPYQNKGHGSCLYEAIIQSWLEDKSITEITVEDPNEAFDDLRDRNDIQRLRKLGYDAVFQKHSDLSDEFLESSRKSLKLEERQFNRLVEMLLLLNNSPSFELKVKNRLYIKNYDALDQTDPEKAREALQNSFILVKDDYRRIIESINKSQG,not soluble
15,SPRPRKRQTGTAGPDRKKLSGKRTKTENSESTSVKLENSSLEMTTTFKNGGKNLSNYWLMKSEPESRLEKGIDMKFSIEDLKAQPKQTACWDGVRNYQARNFLRAMKLEDEAFFYHSNCKQPGIVGLMKIVKEAYPDHTQFEKSNPHYDPSSKEDDPKWSMVDVQFVRMMKRFIPLEELKTYHQAHKATGGPLKSMTLFTRQRLSVQPLTQEEFDFILSLEETEPS,soluble
